Reference: US20250333514A1 (CDR LIFE, published 2025)
Changes are numbered by the printed parent chain.

What was measured:
Assay in all cases: SPR (Biacore 8K), pMHC captured, Fab-scFv analyte
[1] = target: HLA-A*02:01 loaded with PRAME peptide H5D (human, pMHC ligand was biotinylated for capture (Example 5); site or tag of biotinylation not disclosed)
Protocol: (§1) Recombinantly produced hits in Fab-scFv format, as described in Example 4, were evaluated for their ability to bind HLA-A*02:01/PRAME antigen. Binding characterization was performed by surface plasmon resonance (SPR) using a Biacore™ 8k (Cytiva) device. Briefly, 3000 RU of Biotin CAPture reagent (Cytiva) was immobilized on a Series S Sensor Chip CAP (Cytiva) and the biotinylated ligand HLA-A*02:01/PRAME (SEQ ID NO: 68) was diluted in HPS-EP+ running buffer (TEKNOVA) and captured for 300 s at a flow rate of 2 μL/min at flow cell 2 resulting in a ligand capture level of >100 RU. Subsequently, at least three consecutive analyte injections were performed at suitable concentrations applying the single-cycle-kinetics mode at a flow rate of 30 μL/min with an association time of 90 s and the dissociation time set to >400 s. The chip surface was regenerated according to the manufacturer's instructions. After reference flow cell signal and blank injections subtraction, the data was fit to a 1:1 Langmuir binding model to determine the association rate constant kₐ and dissociation rate constant kd and calculate the equilibrium dissociation constant KD (kd/kₐ), also denoted as affinity, using the Biacore™ Insight Evaluation software.
(§2) The molecular recognition profile of monovalent (Fab-scFv) antigen binding molecules M3076 and M3287 for HLA-A*02:01/PRAME binding (equivalent bivalent (Fab-(scFv)₂) antigen binding molecules are M3167 and M3292, respectively) were determined by SPR measurements with HLA-A*02:01 complexes loaded with PRAME peptide or peptides containing a single amino acid substitution to alanine, arginine or aspartic acid. The kinetic parameters for each HLA-A*02:01 complex loaded with a peptide was determined by SPR, according to the previously described method in Example 5.

[2] = target: HLA-A*02:01 loaded with PRAME peptide L6D (human, Complex was biotinylated for capture on the SPR chip; site or tag of biotinylation not disclosed and not in the letters.)
Protocol: as §1, §2

[3] = target: T1, HLA-A*02:01/PRAME antigen (recombinant, … on HLA-A*02:01) (human, Complex biotinylated for SPR capture; site of biotin and any tag not stated, not in the letters.)
T1 construct: also called PRAME target; pMHC
Protocol: as §1, §2

[4] = target: HLA-A*02:01 loaded with PRAME peptide Q4D (human, pMHC ligand was biotinylated for capture (Example 5); site or tag of biotinylation not disclosed)
Protocol: as §1, §2

[5] = target: HLA-A*02:01 loaded with PRAME peptide L3D (human, pMHC ligand was biotinylated for capture (Example 5); site or tag of biotinylation not disclosed)
Protocol: as §1, §2

[6] = target: HLA-A*02:01 loaded with PRAME peptide S1D (human, pMHC ligand was biotinylated for capture (Example 5); site or tag of biotinylation not disclosed)
Protocol: as §1, §2

[7] = target: HLA-A*02:01 loaded with PRAME peptide G8D (human, Complex was biotinylated for capture on the SPR chip; site or tag of biotinylation not disclosed and not in the letters.)
Protocol: as §1, §2

[8] = target: HLA-A*02:01 loaded with PRAME peptide I7D (human, Complex was biotinylated for capture on the SPR chip; site or tag of biotinylation not disclosed and not in the letters.)
Protocol: as §1, §2

[9] = target: HLA-A*02:01 loaded with PRAME peptide L9D (human, Complex was biotinylated for capture on the SPR chip; site or tag of biotinylation not disclosed and not in the letters.)
Protocol: as §1, §2

[10] = target: HLA-A*02:01 loaded with PRAME peptide L2D (human, pMHC ligand was biotinylated for capture (Example 5); site or tag of biotinylation not disclosed)
Protocol: as §1, §2

[11] = target: HLA-A*02:01 loaded with PRAME peptide Q4A (human, Complex captured as in Example 5 (biotinylated ligand); biotin site or tag not stated, not in the letters.)
Protocol: as §1, §2

[12] = target: HLA-A*02:01 loaded with PRAME peptide L3A (human, Complex captured as in Example 5 (biotinylated ligand); biotin site or tag not stated, not in the letters.)
Protocol: as §1, §2

[13] = target: HLA-A*02:01 loaded with PRAME peptide L9A (human, Non-covalent three-chain complex; biotinylated for capture on the chip, site or tag of biotinylation not stated.)
Protocol: as §1, §2

[14] = target: HLA-A*02:01 loaded with PRAME peptide I7A (human, Complex captured as in Example 5 (biotinylated ligand); biotin site or tag not stated, not in the letters.)
Protocol: as §1, §2

B1: M3076 (bispecific antibody)
heavy: EVQLVESGGGLVQPGGSLRLSCAASGFTFSTYAMNWVRQAPGKGLEWVGRIRSKYNNYATYYADSVKGRFTISRDDSKNTLYLQMNSLRAEDTAVYYCVRHGNFGDSYVSWFAYWGQGTLVTVSSASTKGPSVFPLAPSSKSTSGGTAALGCLVKDYFPEPVTVSWNSGALTSGVHTFPAVLQSSGLYSLSSVVTVPSSSLGTQTYICNVNHKPSNTKVDKKVEPKSCGGGGSDIQMTQSPSSLSASVGDRVTITCRSSQSVYNNLLGWYQQKPGKAPKLLIYSASTLASGVPSRFSGSGSGTDFTLTISSLQPEDFATYYCQGTYYNGDWYYPFGCGTKVEIKGGGGSGGGGSGGGGSGGGGSQVQLVESGGGSVQPGRSLRLSCAASGFDFSTYGVSWVRQAPGKCLEWIGYIDPVYGSTHYADSVKGRFTISRDNSKNTLYLQMNSLRAEDTASYYCVRDLYAGSSGYYMIYSLWGQGTSVTVSS
light: QAVVTQEPSLTVSPGGTVTLTCGSSTGAVTTSNYANWVQQKPGKSPRGLIGGTNKRAPGVPARFSGSLLGGKAALTISGAQPEDEADYYCALWYSNHWVFGGGTKLTVLGQPKAAPSVTLFPPSSEELQANKATLVCLISDFYPGAVTVAWKADSSPVKAGVETTTPSKQSNNKYAASSYLSLTPEQWKSHRSYSCQVTHEGSTVEKTVAPTECS
notes: Humanized variant of M2638, monovalent Fab-scFv; bivalent equivalent is M3167
Kd [1]: 440 pM
binding result [2]: no binding
Kd [3]: 80 pM
Kd [4]: 340 pM
Kd [5]: 90 pM
Kd [6]: 60 pM
binding result [7]: no binding
binding result [8]: no binding
Kd [9]: 830 pM
binding result [10]: no binding
Kd [11]: 180 pM
Kd [12]: 190 pM
Kd [13]: 1700 pM
Kd [14]: 31000 pM

B2: M3287 (bispecific antibody)
heavy: B1 heavy with F317S, N328T, M473V
light: B1 light
notes: Humanized variant of M2638, monovalent Fab-scFv; bivalent equivalent is M3292
Kd [1]: 4600 pM
binding result [2]: no binding
Kd [3]: 570 pM
Kd [4]: 3400 pM
Kd [5]: 630 pM
Kd [6]: 530 pM
binding result [7]: no binding
binding result [8]: no binding
Kd [9]: 2700 pM
binding result [10]: no binding
Kd [11]: 1200 pM
Kd [12]: 1600 pM
Kd [13]: 18000 pM
Kd [14]: 100000 pM
